Source: patent publication US20140271457A1 (AbbVie / Abbott, published 2014)

What was measured:
[1] = molecular target: Recombinant Human TNF-α/TNFSF1A (human, UniProt P01375 77-233); assay: cell-based or functional assay
Recombinant Human β-NGF = Recombinant Human β-NGF (human, UniProt P01138 122-241); assay: cell-based or functional assay
Chain of Recombinant Human β-NGF (P01138 122-241 limits assumed): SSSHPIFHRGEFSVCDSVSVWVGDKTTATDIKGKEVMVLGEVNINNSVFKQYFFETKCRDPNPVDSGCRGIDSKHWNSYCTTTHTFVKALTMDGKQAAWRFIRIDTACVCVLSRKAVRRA

Chain of Recombinant Human TNF-α/TNFSF1A (P01375 77-233 limits assumed): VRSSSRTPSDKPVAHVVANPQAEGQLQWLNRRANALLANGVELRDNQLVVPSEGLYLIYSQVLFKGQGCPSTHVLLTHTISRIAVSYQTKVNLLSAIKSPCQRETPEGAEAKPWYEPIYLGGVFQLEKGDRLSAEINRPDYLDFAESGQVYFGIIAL

Binder | N-Terminal VD huTNFα Neutralization Assay IC50 [1] [pM] | C-Terminal VD NGF Neutralization Assay IC50 (Recombinant Human β-NGF) [pM] | C-Terminal VD huTNFα Neutralization Assay IC50 [1] [pM] | N-Terminal VD NGF Neutralization Assay IC50 (Recombinant Human β-NGF) [pM]
DVD2713 (bispecific antibody, IgG1) VH: EVQLVESGGGLVQPGGSLRLSCAASGFTFSNYGVTWVRQAPGKGLEWVSMIWADGSTHYASSVKGRFTISRDNSKNTLYLQMNSLRAEDTAVYYCAREWQHGPVAYWGQGTLVTVSSGGGGSGGGGSEVQLVESGGGLVQPGGSLRLSCAASGFSLTNNNVNWVRQAPGKGLEWVGGVWAGGATDYNSALKSRFTISRDNSKNTAYLQMNSLRAEDTAVYYCARDGGYSSSTLYAMDAWGQGTLVTVSS VL: DIQMTQSPSSLSASVGDRVTITCRASQLVSSAVAWYQQKPGKAPKLLIYWASARHTGVPSRFSGSGSGTDFTLTISSLQPEDFATYYCQQHYKTPFTFGQGTKLEIKRGGSGGGGSGDIQMTQSPSSLSASVGDRVTITCRASEDIYNALAWYQQKPGKAPKLLIYNTDTLHTGVPSRFSGSGSGTDYTLTISSLQPEDFATYFCQHYFHYPRTFGQGTKVEIKR | 6 | 2900 | – | –
DVD2763 (bispecific antibody, IgG1) VH: EVQLVESGGGLVQPGGSLRLSCAASGFTFSNYGVEWVRQAPGKGLEWVSGIWADGSTHYADTVKSRFTISRDNSKNTLYLQMNSLRAEDTAVYYCAREWQHGPVAYWGQGTLVTVSSGGGGSGGGGSEVQLVESGGGLVQPGGSLRLSCAASGFSLTNNNVNWVRQAPGKGLEWVGGVWAGGATDYNSALKSRFTISRDNSKNTAYLQMNSLRAEDTAVYYCARDGGYSSSTLYAMDAWGQGTLVTVSS VL: DIQMTQSPSSLSASVGDRVTITCKASQLVSSAVAWYQQKPGKAPKLLIYWASTLHTGVPSRFSGSGSGTDFTLTISSLQPEDFATYYCQQHYRTPFTFGQGTKLEIKRGGSGGGGSGDIQMTQSPSSLSASVGDRVTITCRASEDIYNALAWYQQKPGKAPKLLIYNTDTLHTGVPSRFSGSGSGTDYTLTISSLQPEDFATYFCQHYFHYPRTFGQGTKVEIKR | 4 | 871 | – | –
DVD2718 (bispecific antibody, IgG1) VH: EVQLVESGGGLVQPGGSLRLSCAASGFSLTNNNVNWVRQAPGKGLEWVGGVWAGGATDYNSALKSRFTISRDNSKNTAYLQMNSLRAEDTAVYYCARDGGYSSSTLYAMDAWGQGTLVTVSSGGGGSGGGGSEVQLVESGGGLVQPGGSLRLSCAASGFTFSNYGVTWVRQAPGKGLEWVSMIWADGSTHYASSVKGRFTISRDNSKNTLYLQMNSLRAEDTAVYYCAREWQHGPVAYWGQGTLVTVSS VL: DIQMTQSPSSLSASVGDRVTITCRASEDIYNALAWYQQKPGKAPKLLIYNTDTLHTGVPSRFSGSGSGTDYTLTISSLQPEDFATYFCQHYFHYPRTFGQGTKVEIKRGGSGGGGSGDIQMTQSPSSLSASVGDRVTITCRASQLVSSAVAWYQQKPGKAPKLLIYWASARHTGVPSRFSGSGSGTDFTLTISSLQPEDFATYYCQQHYKTPFTFGQGTKLEIKR | – | – | 249 | 8
DVD2714 (bispecific antibody, IgG1) VH: EVQLVESGGGLVQPGGSLRLSCAASGFTFSNYGVTWVRQAPGKGLEWVSMIWADGSTHYASSVKGRFTISRDNSKNTLYLQMNSLRAEDTAVYYCAREWQHGPVAYWGQGTLVTVSSASTKGPEVQLVESGGGLVQPGGSLRLSCAASGFSLTNNNVNWVRQAPGKGLEWVGGVWAGGATDYNSALKSRFTISRDNSKNTAYLQMNSLRAEDTAVYYCARDGGYSSSTLYAMDAWGQGTLVTVSS VL: DIQMTQSPSSLSASVGDRVTITCRASQLVSSAVAWYQQKPGKAPKLLIYWASARHTGVPSRFSGSGSGTDFTLTISSLQPEDFATYYCQQHYKTPFTFGQGTKLEIKRTVAAPDIQMTQSPSSLSASVGDRVTITCRASEDIYNALAWYQQKPGKAPKLLIYNTDTLHTGVPSRFSGSGSGTDYTLTISSLQPEDFATYFCQHYFHYPRTFGQGTKVEIKR | 8 | 6850 | – | –
DVD2716 (bispecific antibody, IgG1) VH: EVQLVESGGGLVQPGGSLRLSCAASGFTFSNYGVTWVRQAPGKGLEWVSMIWADGSTHYASSVKGRFTISRDNSKNTLYLQMNSLRAEDTAVYYCAREWQHGPVAYWGQGTLVTVSSASTKGPEVQLVESGGGLVQPGGSLRLSCAASGFSLTNNNVNWVRQAPGKGLEWVGGVWAGGATDYNSALKSRFTISRDNSKNTAYLQMNSLRAEDTAVYYCARDGGYSSSTLYAMDAWGQGTLVTVSS VL: DIQMTQSPSSLSASVGDRVTITCRASQLVSSAVAWYQQKPGKAPKLLIYWASARHTGVPSRFSGSGSGTDFTLTISSLQPEDFATYYCQQHYKTPFTFGQGTKLEIKRTVAAPSVFIFPPDIQMTQSPSSLSASVGDRVTITCRASEDIYNALAWYQQKPGKAPKLLIYNTDTLHTGVPSRFSGSGSGTDYTLTISSLQPEDFATYFCQHYFHYPRTFGQGTKVEIKR | 14 | 624 | – | –
DVD2764 (bispecific antibody, IgG1) VH: EVQLVESGGGLVQPGGSLRLSCAASGFTFSNYGVEWVRQAPGKGLEWVSGIWADGSTHYADTVKSRFTISRDNSKNTLYLQMNSLRAEDTAVYYCAREWQHGPVAYWGQGTLVTVSSASTKGPEVQLVESGGGLVQPGGSLRLSCAASGFSLTNNNVNWVRQAPGKGLEWVGGVWAGGATDYNSALKSRFTISRDNSKNTAYLQMNSLRAEDTAVYYCARDGGYSSSTLYAMDAWGQGTLVTVSS VL: DIQMTQSPSSLSASVGDRVTITCKASQLVSSAVAWYQQKPGKAPKLLIYWASTLHTGVPSRFSGSGSGTDFTLTISSLQPEDFATYYCQQHYRTPFTFGQGTKLEIKRTVAAPDIQMTQSPSSLSASVGDRVTITCRASEDIYNALAWYQQKPGKAPKLLIYNTDTLHTGVPSRFSGSGSGTDYTLTISSLQPEDFATYFCQHYFHYPRTFGQGTKVEIKR | 12 | 4100 | – | –
DVD2717 (bispecific antibody, IgG1) VH: EVQLVESGGGLVQPGGSLRLSCAASGFTFSNYGVTWVRQAPGKGLEWVSMIWADGSTHYASSVKGRFTISRDNSKNTLYLQMNSLRAEDTAVYYCAREWQHGPVAYWGQGTLVTVSSASTKGPSVFPLAPEVQLVESGGGLVQPGGSLRLSCAASGFSLTNNNVNWVRQAPGKGLEWVGGVWAGGATDYNSALKSRFTISRDNSKNTAYLQMNSLRAEDTAVYYCARDGGYSSSTLYAMDAWGQGTLVTVSS VL: DIQMTQSPSSLSASVGDRVTITCRASQLVSSAVAWYQQKPGKAPKLLIYWASARHTGVPSRFSGSGSGTDFTLTISSLQPEDFATYYCQQHYKTPFTFGQGTKLEIKRTVAAPDIQMTQSPSSLSASVGDRVTITCRASEDIYNALAWYQQKPGKAPKLLIYNTDTLHTGVPSRFSGSGSGTDYTLTISSLQPEDFATYFCQHYFHYPRTFGQGTKVEIKR | 278 | 936 | – | –
DVD3047 (bispecific antibody, IgG1) VH: EVQLVESGGGLVQPGGSLRLSCAASGFSLTNNNVNWVRQAPGKGLEWVGGVWAGGATDYNSALKSRFTISRDNSKNTAYLQMNSLRAEDTAVYYCARDGGYSSSTLYAMDAWGQGTLVTVSSASTKGPSVFPLAPEVQLVQSGAEVKKPGASVKVSCKASGYTFNNYGIIWVRQAPGQGLEWMGWINTYTGKPTYAQKFQGRVTMTTDTSTSTAYMELSSLRSEDTAVYYCARKLFNTVAVTDNAMDYWGQGTTVTVSS VL: DIQMTQSPSSLSASVGDRVTITCRASEDIYNALAWYQQKPGKAPKLLIYNTDTLHTGVPSRFSGSGSGTDYTLTISSLQPEDFATYFCQHYFHYPRTFGQGTKVEIKRTVAAPDIQMTQSPSSLSASVGDRVTITCRASQDIENYLNWYQQKPGKAPKLLIYYTSRLQSGVPSRFSGSGSGTDFTLTISSLQPEDFATYFCQQGNTQPPTFGQGTKLEIKR | – | – | – | > 10000
DVD2719 (bispecific antibody, IgG1) VH: EVQLVESGGGLVQPGGSLRLSCAASGFSLTNNNVNWVRQAPGKGLEWVGGVWAGGATDYNSALKSRFTISRDNSKNTAYLQMNSLRAEDTAVYYCARDGGYSSSTLYAMDAWGQGTLVTVSSASTKGPEVQLVESGGGLVQPGGSLRLSCAASGFTFSNYGVTWVRQAPGKGLEWVSMIWADGSTHYASSVKGRFTISRDNSKNTLYLQMNSLRAEDTAVYYCAREWQHGPVAYWGQGTLVTVSS VL: DIQMTQSPSSLSASVGDRVTITCRASEDIYNALAWYQQKPGKAPKLLIYNTDTLHTGVPSRFSGSGSGTDYTLTISSLQPEDFATYFCQHYFHYPRTFGQGTKVEIKRTVAAPDIQMTQSPSSLSASVGDRVTITCRASQLVSSAVAWYQQKPGKAPKLLIYWASARHTGVPSRFSGSGSGTDFTLTISSLQPEDFATYYCQQHYKTPFTFGQGTKLEIKR | – | – | 126 | 19
DVD2721 (bispecific antibody, IgG1) VH: EVQLVESGGGLVQPGGSLRLSCAASGFSLTNNNVNWVRQAPGKGLEWVGGVWAGGATDYNSALKSRFTISRDNSKNTAYLQMNSLRAEDTAVYYCARDGGYSSSTLYAMDAWGQGTLVTVSSASTKGPEVQLVESGGGLVQPGGSLRLSCAASGFTFSNYGVTWVRQAPGKGLEWVSMIWADGSTHYASSVKGRFTISRDNSKNTLYLQMNSLRAEDTAVYYCAREWQHGPVAYWGQGTLVTVSS VL: DIQMTQSPSSLSASVGDRVTITCRASEDIYNALAWYQQKPGKAPKLLIYNTDTLHTGVPSRFSGSGSGTDYTLTISSLQPEDFATYFCQHYFHYPRTFGQGTKVEIKRTVAAPSVFIFPPDIQMTQSPSSLSASVGDRVTITCRASQLVSSAVAWYQQKPGKAPKLLIYWASARHTGVPSRFSGSGSGTDFTLTISSLQPEDFATYYCQQHYKTPFTFGQGTKLEIKR | – | – | 29 | 41
DVD2722 (bispecific antibody, IgG1) VH: EVQLVESGGGLVQPGGSLRLSCAASGFSLTNNNVNWVRQAPGKGLEWVGGVWAGGATDYNSALKSRFTISRDNSKNTAYLQMNSLRAEDTAVYYCARDGGYSSSTLYAMDAWGQGTLVTVSSASTKGPSVFPLAPEVQLVESGGGLVQPGGSLRLSCAASGFTFSNYGVTWVRQAPGKGLEWVSMIWADGSTHYASSVKGRFTISRDNSKNTLYLQMNSLRAEDTAVYYCAREWQHGPVAYWGQGTLVTVSS VL: DIQMTQSPSSLSASVGDRVTITCRASEDIYNALAWYQQKPGKAPKLLIYNTDTLHTGVPSRFSGSGSGTDYTLTISSLQPEDFATYFCQHYFHYPRTFGQGTKVEIKRTVAAPDIQMTQSPSSLSASVGDRVTITCRASQLVSSAVAWYQQKPGKAPKLLIYWASARHTGVPSRFSGSGSGTDFTLTISSLQPEDFATYYCQQHYKTPFTFGQGTKLEIKR | – | – | 190 | 53
